Experimental data: patent publication US8343490B2, “Monoclonal antibody SC104 and derivative thereof specifically binding to a sialyltetraosyl carbohydrate as a potential anti-tumor therapeutic agent” (Cephalon Australia Pty Ltd, priority 2004, dated 2013)

System: SC104 / C14 antigen
Assay: ELISA for homophilic binding
Conditions: FIG. 23
Method: ELISA for homophilic binding. Flat flexi 96 well ELISA plates were coated with anti-mouse IgG Fc specific antibody or were coated with 3 μg/ml (100 μl/well) of C14 antigen in PBS and dried down overnight. Plates were washed 3 times with PBS prior to blocking with PBS/1% BSA for 1 hr at room temperature. SC104 antibody (0-100 μg/ml) was added on ice for 1 hr. After washing the plate 3 times in PBS/0.05% tween-20, biotinylated SC104 was added and incubated on ice for 30 minutes. Following a further 3 washes in PBS 0.05% tween-20 anti-mouse SA-HRP (1/1000; Dako, High Wycombe, UK) or goat anti-mouse Fc (1/1000: Dako, High Wycombe, UK) was added as appropriate and left on ice for 30 min. Plates were washed 5 times in PBS/0.05% tween-20 before adding 100 μl/well of TMB substrate and reading at 570 nm.

B1: SC104: mouse IgG1 monoclonal antibody specific for a sialyltetraosyl carbohydrate, raised by immunisation with colorectal cancer cell lines (antibody, V domains shown)
VH: DVQLQESGPDLVKPSQSLSLTCTVTGYSITSGYSWHWVRQFPGNKMEWMGHIHFSGRPTYNPSLSSRISITRDTSKNQFLLQLKFVTTEDTSTYFCARKGKGSDDGLNYWGQGISVTVSS
VL: ENVLTQSPVIMSASPGEKVTMTCSASSSLSYIHWYQQKSRTSPKLWIYDTSNLASGVPGRFSGSGSGNSYSLTISSMEAEDVATYYCFQGSEYPLTFGGGTKLEMT
Question: For B1, which “binding to plates coated with purified glycoprotein expressing SC104 haptens” value (C14 antigen coated plates) is on record?
Answer: The value was “bound stoichiometrically until 10 μg/ml and then bound exponentially beyond this concentration”.

Question: And the “homophilic binding in the absence of antigen” value (plate coated with unlabelled SC104, SC104 biotin detected)?
Answer: Its value is “did not bind to itself”.
